The numbers were not newly measured in PMC9794804, which cites them from elsewhere.

pKd: −log10 of the molar value.

Targets include TREM-1 (UniProt Q9NP99); IL-6R (UniProt P08887); TLR4 (UniProt O00206).

eCIRP, sequence (Q14011 whole entry): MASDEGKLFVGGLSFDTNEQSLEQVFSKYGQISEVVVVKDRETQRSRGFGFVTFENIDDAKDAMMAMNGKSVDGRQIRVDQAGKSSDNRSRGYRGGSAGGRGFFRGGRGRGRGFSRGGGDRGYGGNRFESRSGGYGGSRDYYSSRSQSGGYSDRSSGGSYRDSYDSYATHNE
TLR4, sequence (O00206 24-631): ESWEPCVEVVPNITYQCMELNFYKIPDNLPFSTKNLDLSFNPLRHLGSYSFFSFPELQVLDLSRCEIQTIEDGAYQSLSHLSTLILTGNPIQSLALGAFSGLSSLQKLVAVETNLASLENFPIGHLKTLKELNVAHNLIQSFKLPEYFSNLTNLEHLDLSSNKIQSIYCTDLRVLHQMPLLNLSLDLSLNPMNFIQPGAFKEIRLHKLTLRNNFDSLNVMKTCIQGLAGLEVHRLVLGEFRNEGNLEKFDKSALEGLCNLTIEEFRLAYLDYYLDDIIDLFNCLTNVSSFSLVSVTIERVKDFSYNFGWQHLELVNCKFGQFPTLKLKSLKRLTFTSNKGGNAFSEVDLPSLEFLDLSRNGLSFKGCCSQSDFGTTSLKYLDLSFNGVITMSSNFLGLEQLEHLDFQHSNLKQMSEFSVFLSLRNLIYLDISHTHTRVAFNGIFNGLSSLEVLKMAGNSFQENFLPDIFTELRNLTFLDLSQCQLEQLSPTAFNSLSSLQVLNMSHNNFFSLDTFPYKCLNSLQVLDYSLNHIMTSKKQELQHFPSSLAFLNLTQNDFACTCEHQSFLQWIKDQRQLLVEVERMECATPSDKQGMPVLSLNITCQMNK
IL-6R, sequence (P08887 20-365): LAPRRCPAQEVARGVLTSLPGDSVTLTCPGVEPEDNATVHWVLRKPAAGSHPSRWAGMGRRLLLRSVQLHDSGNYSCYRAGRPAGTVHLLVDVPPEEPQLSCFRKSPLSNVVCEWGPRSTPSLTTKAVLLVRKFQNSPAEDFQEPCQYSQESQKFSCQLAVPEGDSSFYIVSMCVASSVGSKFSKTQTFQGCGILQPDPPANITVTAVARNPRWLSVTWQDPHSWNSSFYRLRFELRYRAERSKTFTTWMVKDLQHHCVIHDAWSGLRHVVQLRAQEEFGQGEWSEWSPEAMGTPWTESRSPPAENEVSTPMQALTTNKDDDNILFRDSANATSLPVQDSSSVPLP
TREM-1, sequence (Q9NP99 21-205): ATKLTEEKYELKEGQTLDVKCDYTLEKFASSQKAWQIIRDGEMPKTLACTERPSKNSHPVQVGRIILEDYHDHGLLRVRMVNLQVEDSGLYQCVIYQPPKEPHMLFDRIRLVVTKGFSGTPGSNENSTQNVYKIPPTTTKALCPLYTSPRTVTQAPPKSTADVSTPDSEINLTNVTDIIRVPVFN

On to eCIRP (from UniProt Q14011), for which the pKd with TREM-1 was 6.93; with IL-6R, 7.01; with TLR4, 6.21.

As a reminder, the pKd is −log10 of the Kd, conventionally taken in molar units.
